This note sets out measurements from IntAct's records for PubMed 23681068.

The labels stand for the following.
B1: RNA-binding protein FUS (Homo sapiens), P35637 (parent)
chain: MASNDYTQQATQSYGAYPTQPGQGYSQQSSQPYGQQSYSGYSQSTDTSGYGQSSYSSYGQSQNTGYGTQSTPQGYGSTGGYGSSQSSQSSYGQQSSYPGYGQQPAPSSTSGSYGSSSQSSSYGQPQSGSYSQQPSYGGQQQSYGQQQSYNPPQGYGQQNQYNSSSGGGGGGGGGGNYGQDQSSMSSGGGSGGGYGNQDQSGGGGSGGYGQQDRGGRGRGGSGGGGGGGGGGYNRSSGGYEPRGRGGGRGGRGGMGGSDRGGFNKFGGPRDQGSRHDSEQDNSDNNTIFVQGLGENVTIESVADYFKQIGIIKTNKKTGQPMINLYTDRETGKLKGEATVSFDDPPSAKAAIDWFDGKEFSGNPIKVSFATRRADFNRGGGNGRGGRGRGGPMGRGGYGGGGSGGGGRGGFPSGGGGGGGQQRAGDWKCPNPTCENMNFSWRNECNQCKAPKPDGPGGGPGGSHMGGNYGDDRRGGRGGYDRGGYRGRGGDRGGFRGGRGGGDRGGFGPGKMDSRGEHRQDRRERPY

In one test the parent is B1. As to conditions: with smn_mouse Smn1, P97801.
smn_mouse Smn1, P97801, sequence (P97801 whole entry): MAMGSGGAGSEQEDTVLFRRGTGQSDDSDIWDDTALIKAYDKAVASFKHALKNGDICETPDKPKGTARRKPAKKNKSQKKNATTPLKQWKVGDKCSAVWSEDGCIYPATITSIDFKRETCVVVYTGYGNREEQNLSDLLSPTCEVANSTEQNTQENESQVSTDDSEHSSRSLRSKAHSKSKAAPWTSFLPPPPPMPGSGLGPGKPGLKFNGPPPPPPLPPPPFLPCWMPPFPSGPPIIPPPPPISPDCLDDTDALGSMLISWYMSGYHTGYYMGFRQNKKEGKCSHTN
As to MASNDYTQQATQSYGAYPTQPGQGYSQQSSQPYGQQSYSGYSQSTDTSGYGQSSYSSYGQSQNTGYGTQSTPQGYGSTGGYGSSQSSQSSYGQQSSYPGYGQQPAPSSTSGSYGSSSQSSSYGQPQSGSYSQQPSYGGQQQSYGQQQSYNPPQGYGQQNQYNSSSGGGGGGGGGGNYGQDQSSMSSGGGSGGGYGNQDQSGGGGSGGYGQQDRGGRGRGGSGGGGGGGGGGYNRSSGGYEPRGRGGGRGGRGGMGGSDRGGFNKFGGPRDQGSRHDSEQDNSDNNTIFVQGLGENVTIESVADYFKQIGIIKTNKKTGQPMINLYTDRETGKLKGEATVSFDDPPSAKAAIDWFDGKEFSGNPIKVSFATRRADFNRGGGNGRGGRGRGGPMGRGGYGGGGSGGGGRGGFPSGGGGGGGQQRAGDWKCPNPTCENMNFSWRNECNQCKAPKPDGPGGGPGGSHMGGNYGDDRRGGRGGYDRGGYRGRGGDRGGFRGGRGGGDRGGFGPGKMDSRGEHRQDRRERLY [P525L], the “effect of a mutation on the interaction” value was “increasing interaction strength”.

Turning to MASNDYTQQATQSYGAYPTQPGQGYSQQSSQPYGQQSYSGYSQSTDTSGYGQSSYSSYGQSQNTGYGTQSTPQGYGSTGGYGSSQSSQSSYGQQSSYPGYGQQPAPSSTSGSYGSSSQSSSYGQPQSGSYSQQPSYGGQQQSYGQQQSYNPPQGYGQQNQYNSSSGGGGGGGGGGNYGQDQSSMSSGGGSGGGYGNQDQSGGGGSGGYGQQDRGGRGRGGSGGGGGGGGGGYNRSSGGYEPRGRGGGRGGRGGMGGSDRGGFNKFGGPRDQGSRHDSEQDNSDNNTIFVQGLGENVTIESVADYFKQIGIIKTNKKTGQPMINLYTDRETGKLKGEATVSFDDPPSAKAAIDWFDGKEFSGNPIKVSFATRRADFNRGGGNGRGGRGRGGPMGRGGYGGGGSGGGGRGGFPSGGGGGGGQQRAGDWKCPNPTCENMNFSWRNECNQCKAPKPDGPGGGPGGSHMGGNYGDDRRGGRGGYDRGGYRGRGGDRGGFRGGRGGGDRGGFGPGKMDSRGEHRQDCRERPY [R521C], the “effect of a mutation on the interaction” value is “increasing interaction strength”.

As for MASNDYTQQATQSYGAYPTQPGQGYSQQSSQPYGQQSYSGYSQSTDTSGYGQSSYSSYGQSQNTGYGTQSTPQGYGSTGGYGSSQSSQSSYGQQSSYPGYGQQPAPSSTSGSYGSSSQSSSYGQPQSGSYSQQPSYGGQQQSYGQQQSYNPPQGYGQQNQYNSSSGGGGGGGGGGNYGQDQSSMSSGGGSGGGYGNQDQSGGGGSGGYGQQDRGGRGRGGSGGGGGGGGGGYNRSSGGYEPRGRGGGRGGRGGMGGSDRGGFNKFGGPRDQGSRHDSEQDNSDNNTIFVQGLGENVTIESVADYFKQIGIIKTNKKTGQPMINLYTDRETGKLKGEATVSFDDPPSAKAAIDWFDGKEFSGNPIKVSFATRRADFNRGGGNGRGGRGRGGPMGRGGYGGGGSGGGGRGGFPSGGGGGGGQQRAGDWKCPNPTCENMNFSWRNECNQCKAPKPDGPGGGPGGSHMGGNYGDDRRGGRGGYDRGGYRGRGGDRGGFRGGRGGGDRGGFGPGKMDSRGEHRQDHRERPY [R521H], the “effect of a mutation on the interaction” value was “increasing interaction strength”.

In a further test the parent is B1. To be noted: with smn_mouse Smn1, P97801. The source holds these as a separate data set.
On to MASNDYTQQATQSYGAYPTQPGQGYSQQSSQPYGQQSYSGYSQSTDTSGYGQSSYSSYGQSQNTGYGTQSTPQGYGSTGGYGSSQSSQSSYGQQSSYPGYGQQPAPSSTSGSYGSSSQSSSYGQPQSGSYSQQPSYGGQQQSYGQQQSYNPPQGYGQQNQYNSSSGGGGGGGGGGNYGQDQSSMSSGGGSGGGYGNQDQSGGGGSGGYGQQDRGGRGRGGSGGGGGGGGGGYNRSSGGYEPRGRGGGRGGRGGMGGSDRGGFNKFGGPRDQGSRHDSEQDNSDNNTIFVQGLGENVTIESVADYFKQIGIIKTNKKTGQPMINLYTDRETGKLKGEATVSFDDPPSAKAAIDWFDGKEFSGNPIKVSFATRRADFNRGGGNGRGGRGRGGPMGRGGYGGGGSGGGGRGGFPSGGGGGGGQQRAGDWKCPNPTCENMNFSWRNECNQCKAPKPDGPGGGPGGSHMGGNYGDDRRGGRGGYDRGGYRGRGGDRGGFRGGRGGGDRGGFGPGKMDSRGEHRQDCRERPY [R521C], for which the “effect of a mutation on the interaction” value is “with no effect”.
